T1: human nectin-1 ectodomain, nectin-1(346t) (human), Q15223
T1 chain: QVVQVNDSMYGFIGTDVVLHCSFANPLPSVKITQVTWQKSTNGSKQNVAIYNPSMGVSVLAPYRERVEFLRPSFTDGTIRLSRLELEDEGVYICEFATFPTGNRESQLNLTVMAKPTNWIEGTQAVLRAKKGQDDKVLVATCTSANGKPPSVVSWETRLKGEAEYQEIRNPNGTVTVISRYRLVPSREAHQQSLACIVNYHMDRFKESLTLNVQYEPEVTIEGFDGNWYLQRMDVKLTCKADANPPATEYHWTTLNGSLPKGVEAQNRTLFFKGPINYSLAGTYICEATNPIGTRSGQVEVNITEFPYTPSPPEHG


What was measured:
anti-nectin-1 Ig CK6 = experiment: ELISA; settings: sub-panel CK6 (80-105); immobilized antibody captures N1V-MBP; detection with anti-MBP-HRP; parent: est. 100; read off a plot
[1] = biological target: HSV-1 glycoprotein D ectodomain truncated at residue 306 (gD306t); experiment: ELISA; settings: read at the highest gD(306t) concentration, about 300 µg/ml; N1V-MBP immobilized; parent: est. 1.5; read off a plot
MAb CK41 = experiment: ELISA; settings: sub-panel CK41 (conf); immobilized antibody captures N1V-MBP; detection with anti-MBP-HRP; parent: est. 100; read off a plot
[2] = biological target: human nectin-1 ectodomain, nectin-1(346t) (human) (UniProt Q15223); experiment: SEC-MALS; SEC combined with multi-angle light scattering, purified proteins in solution; data not shown
[3] = biological target: T1, human nectin-1 ectodomain, …; experiment: as above; settings: remark: other sources report otherwise

| Molecule | percent of parent (% wt detection) (anti-nectin-1 Ig CK6) | response [1] [OD405nm] | percent of parent (% wt detection) (MAb CK41) | stoichiometry N [2] | stoichiometry N [3] |
| --- | --- | --- | --- | --- | --- |
| nectin-1 V-domain fused to maltose binding protein (N1V-MBP), wild type (from UniProt Q15223-1) S84R | 90 | 1.3 | 120 | – | – |
| nectin-1 V-domain fused to maltose binding protein (N1V-MBP), wild type (from UniProt Q15223-1) F129W | 91 | 1.3 | 55 | – | – |
| nectin-1 V-domain fused to maltose binding protein (N1V-MBP), wild type (from UniProt Q15223-1) N82Y | 68 | 0.12 | – | – | – |
| nectin-1 V-domain fused to maltose binding protein (N1V-MBP), wild type (from UniProt Q15223-1) T66Q | 110 | 1.4 | 71 | – | – |
| nectin-1 V-domain fused to maltose binding protein (N1V-MBP), wild type (from UniProt Q15223-1) S84Y | 80 | 0.55 | 31 | – | – |
| nectin-1 V-domain fused to maltose binding protein (N1V-MBP), wild type (from UniProt Q15223-1) F129S | 93 | 0.2 | 7 | – | – |
| HSV-1 KOS glycoprotein D ectodomain truncated at residue 285 (gD285t) (domain or fragment) | – | – | – | 1 | – |
| human nectin-1 ectodomain, nectin-1(346t), Q15223-1 31-346 (receptor) QVVQVNDSMYGFIGTDVVLHCSFANPLPSVKITQVTWQKSTNGSKQNVAIYNPSMGVSVLAPYRERVEFLRPSFTDGTIRLSRLELEDEGVYICEFATFPTGNRESQLNLTVMAKPTNWIEGTQAVLRAKKGQDDKVLVATCTSANGKPPSVVSWETRLKGEAEYQEIRNPNGTVTVISRYRLVPSREAHQQSLACIVNYHMDRFKESLTLNVQYEPEVTIEGFDGNWYLQRMDVKLTCKADANPPATEYHWTTLNGSLPKGVEAQNRTLFFKGPINYSLAGTYICEATNPIGTRSGQVEVNITEFPYTPSPPEHG | – | – | – | – | 2 |

— article PMC3182920
